Assay results from patent publication US20190060430A1 (published 2019).

T1: TPTE peptide on HLA-B*07:02 (human)
T1 peptide: PRWTHLLRL

T2: TPTE peptide on HLA-DRB1*07:01 (human)
T2 peptide: VFVERRQQYFSDLFN

T3: TPTE peptide on HLA-DRB1*07:01 (human)
T3 peptide: YIPLEYRSISLAIAL


Key:
Experiment in all cases: cytokine release
[1] = target: T1, TPTE peptide on HLA-B*07:02
[2] = target: T2, TPTE peptide on HLA-DRB1*07:01
[3] = target: T3, TPTE peptide on HLA-DRB1*07:01

Row | binding result [1] | binding result [2] | binding result [3] | Binder
1 | recognises |  |  | TCRCD8-TPT#35/2 (TCR, V domains shown) Valpha: AQKVTQAQTEISVVEKEDVTLDCVYETRDTTYYLFWYKQPPSGELVFLIRRNSFDEQNEISGRYSWNFQKSTSSFNFTITASQVVDSAVYFCALIEAAAGNKLTFGGGTRVLVKP Vbeta: NAGVTQTPKFRVLKTGQSMTLLCAQDMNHEYMYWYRQDPGMGLRLIHYSVGEGTTAKGEVPDGYNVSRLKKQNFLLGLESAAPSQTSVYFCASSDGYGYTFGSGTRLTVV
2 |  | recognises | recognises | TCRCD4-TPT#9 (TCR, V domains shown) Valpha: QQQVKQSPQSLIVQKGGISIINCAYENTAFDYFPWYQQFPGKGPALLIAIRPDVSEKKEGRFTISFNKSAKQFSLHIMDSQPGDSATYFCAASFYTGNQFYFGTGTSLTVIP Vbeta: DTAVSQTPKYLVTQMGNDKSIKCEQNLGHDTMYWYKQDSKKFLKIMFSYNNKELIINETVPNRFSPKSPDKAHLNLHINSLELGDSAVYFCASSQEALGGGYGYTFGSGTRLTVV
